B1: dominant negative dynamin (K44A) (protein, UniProt Q05193 1-864, looked up, variant K44A)
Dynamin-1: MGNRGMEDLIPLVNRLQDAFSAIGQNADLDLPQIAVVGGQSAGASSVLENFVGRDFLPRGSGIVTRRPLVLQLVNATTEYAEFLHCKGKKFTDFEEVRLEIEAETDRVTGTNKGISPVPINLRVYSPHVLNLTLVDLPGMTKVPVGDQPPDIEFQIRDMLMQFVTKENCLILAVSPANSDLANSDALKVAKEVDPQGQRTIGVITKLDLMDEGTDARDVLENKLLPLRRGYIGVVNRSQKDIDGKKDITAALAAERKFFLSHPSYRHLADRMGTPYLQKVLNQQLTNHIRDTLPGLRNKLQSQLLSIEKEVEEYKNFRPDDPARKTKALLQMVQQFAVDFEKRIEGSGDQIDTYELSGGARINRIFHERFPFELVKMEFDEKELRREISYAIKNIHGIRTGLFTPDMAFETIVKKQVKKIREPCLKCVDMVISELISTVRQCTKKLQQYPRLREEMERIVTTHIREREGRTKEQVMLLIDIELAYMNTNHEDFIGFANAQQRSNQMNKKKTSGNQDEILVIRKGWLTINNIGIMKGGSKEYWFVLTAENLSWYKDDEEKEKKYMLSVDNLKLRDVEKGFMSSKHIFALFNTEQRNVYKDYRQLELACETQEEVDSWKASFLRAGVYPERVGDKEKASETEENGSDSFMHSMDPQLERQVETIRNLVDSYMAIVNKTVRDLMPKTIMHLMINNTKEFIFSELLANLYSCGDQNTLMEESAEQAQRRDEMLRMYHALKEALSIIGDINTTTVSTPMPPPVDDSWLQVQSVPAGRRSPTSSPTPQRRAPAVPPARPGSRGPAPGPPPAGSALGGAPPVPSRPGASPDPFGPPPQVPSRPNRAPPGVPSRSGQASPSRPESPRPPFDL
B2: AID (protein, UniProt Q9GZX7 1-198, looked up)
Single-stranded DNA cytosine …: MDSLLMNRRKFLYQFKNVRWAKGRRETYLCYVVKRRDSATSFSLDFGYLRNKNGCHVELLFLRYISDWDLDPGRCYRVTWFTSWSPCYDCARHVADFLRGNPNLSLRIFTARLYFCEDRKAEPEGLRRLHRAGVQIAIMTFKDYFYCWNTFVENHERTFKAWEGLHENSVRLSRQLRRILLPLYEVDDLRDAFRTLGL

System: vaccinia virus mature virions (EGFP-MV)
Format: cell-based

Molecule	effect of expressed construct on infection	inhibition of infection by expression of construct
B1	no impact	–
B2	–	80%

Reference: patent publication US20100272706A1, “ANTIVIRALS” (priority 2007, published 2010)
